± gives the standard deviation of the averaged measurements.
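Also: PSI is a weighted mean of sequencing reads over stability bins, variants kept only with over 10 reads, mCherry proximal and sfGFP distal, peptide attached via GGGS linker.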

This series deals with Saccharomyces cerevisiae. In words: protein stability index of tFT-peptide fusion (C-terminal peptide) (PSI (0-1 scale)); higher = more stable (slower turnover). The note with it: genetic background: wild type; temperature: 30 C.
In the case of KKEEKKRRKPQR, the protein stability index is 0.626 ± 0.039.
The sequence KKEKKKTKKWQE returned a protein stability index of 0.694 ± 0.1.
To KKEPEKEQQNKE belongs 0.746 ± 0.097; to KKEQKRKKKEKQ, 0.758 ± 0.098; to KKERINNDLPGS, 0.619 ± 0.026.
The same measure for KKERSTKTNRNV: 0.635 ± 0.0072; for KKGRKKEGKREK: 0.621 ± 0.06; for KKIKKRQSKENK: 0.704 ± 0.015.
To KKKENRQKREIQ belongs 0.647 ± 0.029.
Take KKKETEKPRKQK: the protein stability index amounted to 0.677 ± 0.054.
KKKETKKENKKK showed a protein stability index of 0.723 ± 0.034.
To KKKHKNNIQKKK belongs 0.6129 ± 0.0017; to KKKIKKKSIKKT, 0.7074 ± 0.0044.
As for KKKKEEKWSSAR, the protein stability index was determined as 0.709 ± 0.061.
In turn, KKKKGNKKRREK registered a protein stability index of 0.731 ± 0.0083.
KKKKHKNRKEKQ came in with a protein stability index of 0.692 ± 0.019.
For KKKKIIKKKNIK, the protein stability index came to 0.77 ± 0.069.
Sequence KKKKKEEKKNDK came in with a protein stability index of 0.721 ± 0.0073.
KKKKKIHIKNKK displayed a protein stability index of 0.707 ± 0.052.
Sequence KKKKKKKKQNQK displayed a protein stability index of 0.7 ± 0.03.
As to KKKKKKKNKKQE, the protein stability index was found to be 0.7456 ± 0.005.
Turning to KKKKKKKQKSKK, the protein stability index stood at 0.704 ± 0.057.
For the sequence KKKKKKLKKKKI, the protein stability index came to 0.724 ± 0.056.
To KKKKKKNKKEKK belongs 0.689 ± 0.12; to KKKKKLKERRKI, 0.668 ± 0.019.
In turn, KKKKKNKKKKKK came in with a protein stability index of 0.705 ± 0.046.
KKKKKQEREKRN had a protein stability index of 0.623 ± 0.037.
The sequence KKKKKQKEKKQK displayed a protein stability index of 0.72 ± 0.0083.
To KKKKKRITKIKN belongs 0.7089 ± 0.0018; to KKKKKRTKKNNH, 0.767 ± 0.11.
KKKKNKKEEHVE had a protein stability index of 0.715 ± 0.02.
KKKKNKKIKINE displayed a protein stability index of 0.6874 ± 0.0033.
Take KKKKNKKNKRKN: the protein stability index is 0.613 ± 0.034.
Sequence KKKKNKNKRTRK showed a protein stability index of 0.662 ± 0.038.
KKKMINQKKKKD gave a protein stability index of 0.649 ± 0.016.
On to KKKNKEKSKKKK, for which the protein stability index came out at 0.761 ± 0.05.
The sequence KKKNKKQNKAKK showed a protein stability index of 0.6396 ± 0.0023.
KKKRKKNRKTNK showed a protein stability index of 0.67 ± 0.02.
To KKKSNNNNQKPH belongs 0.737 ± 0.016.
To KKMNVKNNKSKI belongs 0.777 ± 0.17; to KKNLITRQNPLS, 0.69004 ± 0.0003.
Consider KKNQKEKATSRK, for which the protein stability index amounted to 0.769 ± 0.043.
Turning to KKNQNSKNRKEN, the protein stability index is 0.627 ± 0.036.
KKNRSRKRRNKK registered a protein stability index of 0.713 ± 0.032.
As for KKNYNTKLTQHP, the protein stability index was found to be 0.683 ± 0.04.
With KKRKKNIKQNTK, the protein stability index is 0.617 ± 0.043.
The sequence KKRQKKKKLIPQ showed a protein stability index of 0.697 ± 0.024.
To KKTDKSNKVKRI belongs 0.669 ± 0.013; to KKWRKKTEHDKE, 0.729 ± 0.028.
KKYEKNGKSSQK: the protein stability index came out at 0.685 ± 0.1.
Regarding KKYETNENNQKK, the protein stability index is 0.686 ± 0.027.
Take KKYKKIGYRRIP: the protein stability index stood at 0.773 ± 0.12.
With KKYNRNRIKKAR, the protein stability index is 0.7 ± 0.08.
With KKYYCRKLNTKK, the protein stability index came out at 0.715 ± 0.017.
KLKACRIHEENR came in with a protein stability index of 0.676 ± 0.019.
Regarding KLKNKRKKIRNR, the protein stability index is 0.71 ± 0.045.
The sequence KLNKKKKITIRI registered a protein stability index of 0.589 ± 0.025.
In turn, KLRSTLVSAQGV registered a protein stability index of 0.652 ± 0.015.
Sequence KLTKAQPRMPLL returned a protein stability index of 0.702 ± 0.027.
Regarding KLVVFPYIRPSP, the protein stability index is 0.709 ± 0.021.
KMCISLGTVLAV displayed a protein stability index of 0.5504 ± 0.0055.
For KMSRKIKIRERG, the protein stability index came out at 0.658 ± 0.016.
As for KNCYPTKKIAIK, the protein stability index was 0.638 ± 0.016.
For KNDLHGLFLMSE, the protein stability index was found to be 0.648 ± 0.041.
KNIEKKKQKDTQ displayed a protein stability index of 0.645 ± 0.058.
To KNITVVKKAFDA belongs 0.654 ± 0.024.
The sequence KNKFSTWDNEVN had a protein stability index of 0.718 ± 0.041.
KNKKKKINKNKK gave a protein stability index of 0.713 ± 0.067.
The same measure for KNKKNKKKKTMK: 0.685 ± 0.041; for KNKKRDKYRKKT: 0.607 ± 0.011; for KNKRTQKKKRKK: 0.7299 ± 0.0016.
KNRKIIIITLPK showed a protein stability index of 0.63 ± 0.036.
With KPKKKRTKQRKR, the protein stability index amounted to 0.705 ± 0.08.
As for KPKRIRCDRSPH, the protein stability index is 0.694 ± 0.019.
The sequence KPPCFSPTHHCP displayed a protein stability index of 0.713 ± 0.0018.
The sequence KQANTKINSQKT had a protein stability index of 0.712 ± 0.036.
In turn, KQGFVRARSYHP registered a protein stability index of 0.699 ± 0.013.
As for KQKKTKKTKKQN, the protein stability index is 0.647 ± 0.044.
KQKQNKKKNNKT displayed a protein stability index of 0.843 ± 0.16.
KQLGMTCRYISK yielded a protein stability index of 0.692 ± 0.022.

Values taken from the supplement of paper PMC10724198.
